Results taken from US20100143950A1.
Where “and” joins values, the source holds several entries; their conditions need not be identical. Equal entries are not always repeated.

Key:
[1] = biological target: C-reactive protein (CRP) (human) (UniProt P02741); experiment: ELISA, purified CFH variant on plate-coated CRP
[2] = biological target: C-reactive protein (CRP) (human) (UniProt P02741); experiment: ELISA, serum 1:1,000 on plate-coated CRP, detection with goat anti-human CFH

UniProt P02741, sequence (P02741 19-224 limits assumed): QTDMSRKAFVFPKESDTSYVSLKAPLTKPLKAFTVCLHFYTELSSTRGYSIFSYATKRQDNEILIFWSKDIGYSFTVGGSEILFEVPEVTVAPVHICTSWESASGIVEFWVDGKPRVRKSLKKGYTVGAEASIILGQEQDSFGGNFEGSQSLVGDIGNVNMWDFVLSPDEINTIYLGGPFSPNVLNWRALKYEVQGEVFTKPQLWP

What does the source list for “Complement Factor H 402Y variant (CFH402Y), from human serum of TT homozygotes (from UniProt P08603 19-1231)”?
OD492 [1]: 0.763 OD492; OD492 [2]: 0.532 OD492 and 0.609 OD492
